Reference: patent US20240052027A1 (OBLIQUE THERAPEUTICS, published 2024)
Bridge positions count the residues as written; N and C are the ends. * marks the point of attachment. Propargyl = C#CC*

T1: OTV16 peptide (SEQ ID NO:3) (human, disulfide 1-18; SMILES …)
T1 construct: cyclic; Coated on ELISA plates
T1 peptide: Propargyl-CYRPVDGLPPFKMEKTGC-NH2

T2: NHP-OTV16 peptide (SEQ ID NO:5) (Macaca mulatta, disulfide 1-18)
T2 construct: cyclic
T2 peptide: Propargyl-CYRPVDGLPPFKMEKTEC-NH2

T3: mOTV16 peptide (SEQ ID NO:9) (mouse, disulfide 1-19)
T3 construct: cyclic
T3 peptide: Propargyl-CYRPVEGLPPYKLNNTVGC-NH2

T4: rOTV16 peptide (SEQ ID NO:7) (rat, disulfide 1-18)
T4 construct: cyclic
T4 peptide: Propargyl-CYRPVEGLPPYKLKNTGC-NH2


Experiments:
[1] = molecular target: T1, OTV16 peptide (SEQ ID NO:3); assay: peptide ELISA of B-cell clone supernatant
Experimental: (§1) FIG. 5: Peptide ELISA of B-cell clone supernatants. Antibody in supernatant from B-cell clones was tested for binding to OTV16 peptide, NHP-OTV16 peptide and rOTV16 peptide respectively. B-cell supernatants were incubated for 1 hr in 96-well plates coated with the respective peptide. Plates were washed and bound antibody was detected using anti-rabbit IgG conjugated to horse radish peroxidase with absorbance measured at 450 nm. Serum from immunized rabbit was used as a positive binding control. B-cell culture medium (antibody-free) was used as a negative control. N=1.
(§2) 96-well plates suitable for ELISA were coated with respective peptide (1 μg/mL) in PBS and incubated 1 h at 37° C. or overnight at 4° C. The peptides used to coat the plates were OTV16 (SEQ ID NO:3), NHP-OTV16 (SEQ ID NO:5), and rOTV16 (SEQ ID NO:7) (described below). Plates were washed with wash buffer and incubated 1 h at 37° C. in the presence of blocking buffer (PBS, 0.5% BSA, 0.05% Tween 20, pH 7.4). B-cell supernatants were added and incubated for 1 h at 37° C. Plates were washed with wash buffer and Mouse Anti-Rabbit IgG Fc Antibody conjugated to horseradish peroxidase (Genscript, cat #A01856) was added and incubated for 30 minutes, 37° C. Plates were washed with wash buffer followed by addition of substrate solution, 100 μl/well and incubated for 13-20 minutes at RT. Reaction was stopped by adding 100 μl/well of stop solution. Absorbance was measured at 450 nm. Serum from immunized rabbit known to contain antibody that binds to OTV16 peptide was used as a positive control. B-cell culture medium (antibody-free) was used as a negative control.

[2] = molecular target: T2, NHP-OTV16 peptide (SEQ ID NO:5); assay: peptide ELISA of B-cell clone supernatant
Experimental: as §1, §2

[3] = molecular target: T3, mOTV16 peptide (SEQ ID NO:9); assay: peptide ELISA of purified recombinant monoclonal antibody
Experimental: (§3) FIG. 6: Peptide ELISA of purified recombinant monoclonal antibodies. Monoclonal antibodies were tested for binding to OTV16 peptide, NHP-OTV16 peptide, mOTV16 peptide and rOTV16 peptide. Non-specific binding was determined using wells coated with bovine serum albumin (BSA). Serum from immunized rabbit (known to contain OTV16-binding antibody) was used as a positive binding control. Serial dilutions of antibody were incubated for 1 hr in ELISA plates coated with peptide or BSA. Plates were washed, and bound antibody was detected using anti-rabbit IgG conjugated to […] with absorbance measured at 405 nm.
(§4) 96-well plates suitable for ELISA were coated with peptide (1 μg/mL) in PBS and incubated 1 h at 37° C. The peptides used to coat the plates were OTV16 (SEQ ID NO:3; described above), NHP-OTV16 (SEQ ID NO:5; described above), rOTV16 (SEQ ID NO:7; described above) and mOTV16 (SEQ ID NO:9; described below). Plates were washed with PBS containing 0.05% Tween and incubated 1 h at 37° C. in the presence of blocking buffer (PBS, 0.5% BSA, 0.05% Tween 20, pH 7.4). A serial dilution of recombinant antibodies of the invention (23B9-1 or 24C6-1 or 27A2-1 or 29B5-1 or 2B₁₁-1 or 33B6-1 or 4D11-1 or 54F1-1 or 69H7-1 or 75C9-1 or 9E4-1) was added in blocking buffer and incubated for 1 h at RT. Plates were washed with PBS containing 0.05% Tween and a secondary antibody (anti-rabbit IgG conjugated to Alkaline Phosphatase (DAKO)), was added and incubated for 1 h at RT. Plates were washed with PBS containing 0.05% Tween followed by addition of 1 mg/mL pNPP (p-nitrophenyl […] phosphate) in pNPP buffer. Absorbance was measured at 405 nm. Serum from rabbit immunized with OTV16 peptide was used as a positive control. Non-specific binding, e.g. to plastic, was determined using wells coated with bovine serum albumin (BSA) protein.

[4] = molecular target: T1, OTV16 peptide (SEQ ID NO:3); assay: as above
Experimental: as §3, §4

[5] = molecular target: T4, rOTV16 peptide (SEQ ID NO:7); assay: peptide ELISA of B-cell clone supernatant
Experimental: as §1, §2

Binder	binding result [1]	binding result [2]	binding result [3]	binding result [4]	binding result [5]
9E4-1 (antibody, V domains shown, Recombinant rabbit IgG with rabbit kappa light chain, made in HEK cells; Also tested as B-cell clone supernatant; also called monoclonal antibody 9E4-1) VH: QSLEESGGRLVTPGTPLTLTCTVSGIDLSSVTMGWVRQAPGKGLEYIGVIVPRGATYYANWVKGRFTISKTSTTVDLKMTSLTTEDTATYFCARDGDTGNIYGYYFDIWGPGTLVTVSL VL: AYDMTQTPASVSEPVGGTVTIKCQASQSISTALAWYQQKSGQRPKLLIYDAWKLASGVSSRFKGSGSGTQFTLTISGVQCDDAATYYCQQGYSGNNVDNVFGGGTEVVVS	binds	binds	binds		
29B5-1 (antibody, V domains shown, Recombinant rabbit IgG with rabbit kappa light chain, made in HEK cells; Also tested as B-cell clone supernatant; also called monoclonal antibody 29B5-1) VH: QSLEESGGRLVTPGTPLTLTCTVSGIDLSSVTMGWVRQAPGKGLEYIGVITTIRTTYYASWVNGRFTISQTSTTVDLKMTSLTTEDTATYFCARDGDTTNTYGYYFDIWGPGTLVTVSL VL: AVVMTQTPASVEVAVGGTVTIKCQASQSISSYLAWYQQKPGQPPKLLIYKASTLASGVPSRFKGSGSGTQFTLTISGVQCDDAATYYCQQGYTGNNVDNIFGGGTEVVVK		binds		binds	
33B6-1 (antibody, V domains shown, Recombinant rabbit IgG with rabbit kappa light chain, made in HEK cells; Also tested as B-cell clone supernatant; also called monoclonal antibody 33B6-1) VH: QSLEESGGRLVTPGTPLTLTCTASGLSLSSYDMNWVRQAPGKGLEYIGFINTRGSAYYASWATGRFTISRTSTTVDLTMTSPTTEDTATYFCARDIPDWDIGHVFDLWGPGTLVTVSS VL: AYDMTQTPASVEVTMGGAVTIKCQASQSISNELSWYQQKPGQRPRLLIYQASALASGVPSRFKGSGYGTQFTLTISDLECADAATYYCQQGYTSNNIVNAFGGGTEVVVK		binds		binds	
27A2-1 (antibody, V domains shown, Recombinant rabbit IgG with rabbit kappa light chain, made in HEK cells; Also tested as B-cell clone supernatant; also called monoclonal antibody 27A2-1) VH: QSLEEAGGRLVTPGGSLTLTCTASGLSLSSYDMNWVRQAPGKGLEFIGFINTRGTAYYASWAKGRFTISRTSTTVDLTMTSPTTEDTATYFCARDIPDWNIGHVFDLWGPGTLVTVSS VL: AYDMTQTPASVEVTMGGAVTINCQASQSITNELAWYQQKPGQRPRLLIYQASALASGVPSRFKGSGYGTQFTLTISDLECADAATYYCQQGYTSNNIVNAFGGGTEVVVK		binds		binds	
69H7-1 (antibody, V domains shown, Recombinant rabbit IgG with rabbit kappa light chain, made in HEK cells; Also tested as B-cell clone supernatant; also called monoclonal antibody 69H7-1) VH: QSLEESGGRLVTPGTPLTLTCTASGLSLSRYDMNWVRQAPGKGLEYIGFINTRGSTYYATWTTGRFTISRTSTTVDLTMTSPTTEDTATYFCARDIPDWDIGHVFDLWGPGTLVTVSS VL: AYDMTQTPASVSGAVGGTVTINCQASQSISNELSWYQQKPGQRPRLLIYQASTLASGVPSRFKGSGYGTQFTLTISDLECADAATYYCQQGYTSNNIVNAFGGGTEVVVK	binds	binds			
4D11-1 (antibody, V domains shown, Recombinant rabbit IgG with rabbit kappa light chain, made in HEK cells; Also tested as B-cell clone supernatant; also called monoclonal antibody 4D11-1) VH: QEQVVESGGGLVQPEGSLTLTCTASGFDFSSNAMCWVRQAPGKGLAWIGCIGTGSSGSTYYASWARGRFTISKTSSTTVTLQMTSLTAADTATYFCPRDINAYGNDGWSFNLWGPGTLVTVSS VL: AYDMTQTPASVEVAVGGTVTIKCQASQSIVGWLSWYQQKPGQPPKLLIYRASTLASGVPSRFKGSGSGTEFTLTISDLECDDAATYYCQQGYTFNNVDNPFGGGTEVLVK		binds		binds	
2B11-1 (antibody, V domains shown, Recombinant rabbit IgG with rabbit kappa light chain, made in HEK cells; Also tested as B-cell clone supernatant; also called monoclonal antibody 2B11-1) VH: QSVGESGGRLVTPGTPLTLTCTVSGIDLSIYPVDWVRQAPGKGLEWIGIINTNGNTYYANWAKGRFTISKTSSTTVDLQVTSLTTEDTATYFCARHFDLWGQGTLVTVSS VL: QVLTQTASPVSAAVGGTVTINCQSSQTVYNNNNLAWYQQKSGQPPKLLIYDSSKLESGVPSRFSGSGSGTQFTLTISDLECDDAATYYCAGGYGGWIAAFGGGTEVVVK		binds	binds	binds	binds

Further lines, results first:

binding result [1]	binding result [2]	binding result [3]	binding result [4]	binding result [5]	Binder
	binds		binds		24C6-1 (antibody, V domains shown, Recombinant rabbit IgG with rabbit kappa light chain, made in HEK cells; Also tested as B-cell clone supernatant; also called monoclonal antibody 24C6-1) VH: QSVEESGGRLVTPGTPLTLTCTVSGFSLSTYAMAWVRQAPGKGLEWIGIIGQSSKTYYAIWAKGRFTISRTSTTVDLKIPSPTTEDTATYFCARGSTYVLDMWGPGTLVTVSL VL: AVVMTQTASPVSAAVGGTVTIKCQASQSISSYLAWYQQKPGQPPKLLIADASKLVSGVPSRFKGSGSGTEFTLTISDLECADAATYYCQNYYGSSDFGTFGGGTEVVVE
binds	binds	binds			23B9-1 (antibody, V domains shown, Recombinant rabbit IgG with rabbit kappa light chain, made in HEK cells; Also tested as B-cell clone supernatant; also called monoclonal antibody 23B9-1) VH: QSVEESGGRPVTPGTPLTLTCTVSGIDLSRYAVDWVRQAPGKGLEWIGIILTSGKISYASWVKGRFTISKTSTTVDLKMTSLTTEDTATYFCARHFDLWGQGTLVTVSS VL: QVLTQTASPVSAAVGGTVTINCQSSQSVYNNNNLAWYQQKPGQPPKLLIYDSSKLESGVPSRFKGSGSGTQFTLIISDLECDDAATYYCAGGYSGVIASFGGGTEVVVK
	binds	binds	binds	binds	54F1-1 (antibody, V domains shown, Recombinant rabbit IgG with rabbit kappa light chain, made in HEK cells; Also tested as B-cell clone supernatant; also called monoclonal antibody 54F1-1) VH: QSVGESGGRLVTPGTPLTLTCTVSGIDLSVYPVDWVRQAPGKGLEWIGIISTNGNTYYANWAKGRFTISKTSSTTVDLKMTSLTTEDTATYFCARHFDLWGQGTLVTVSS VL: QVLTQTASPVSAAVGGTVTINCQSSQTVYNNNNLAWYQQKSGQPPKLLIYDSFKLESGVPSRFSGSGSGTQFTLTISDLECDDAATYYCAGGYAGWIAAFGGGTEVVVK
binds	binds				75C9-1 (antibody, V domains shown, Recombinant rabbit IgG with rabbit kappa light chain, made in HEK cells; Also tested as B-cell clone supernatant; also called monoclonal antibody 75C9-1) VH: QEQVVESGGGLVQPEGSLTLTCTASGFSFNNNAMCWVRQAPGKGLEWIGCIGTAASGNSYYASWAKGRFTISRTSSTTVTLQMTSLTAADTATYFCPRDINAYGNDGWSFKLWGPGTLVTVSS VL: AFELTQTPSSVEAAVGGTVTIKCQASQSINGWLSWYQQKPGQPPKLLIYRASPVASGVPSRFKGSGSGTEYTLTISGVQCDDAATYYCQQGYTFNNVDDPFGGGTEVVVK
